According to patent US20260193342A1 (ZOETIS SERVICES, published 2026):
Changes are numbered by the printed parent chain. Numbers in names are those of the source. Each block holds one binder with its values, some of them ahead of it.

How the values were obtained:
[1] = target: T1, canine FcRn complex (FcRn-α subunit and β-microglobulin) (canine, UniProt A0A8I3PFR8 25-347, biotin on the BAP tag by BirA (Example 5 only)); assay: SPR (Biacore), biotinylated FcRn on SA chip, IgG flowed, pH 6, 15 C
[2] = target: T1, canine FcRn complex (FcRn-α subunit and …); assay: SPR (Biacore), biotinylated FcRn on SA chip, IgG flowed, pH 7.4, 15 C
[3] = target: T1, canine FcRn complex (FcRn-α subunit and …); assay: SPR (Biacore), FcRn amine-coupled to CM5, IgG flowed, pH 6, 15 C
[4] = target: IL-31 (target protein of mAb1); assay: SPR (Biacore T200), target amine-coupled to CM5, antibody flowed, 15 C, 1:1 model
[5] = target: IL-31 (target protein of mAb1); assay: cell-based or functional assay
[6] = target: T1, canine FcRn complex (FcRn-α subunit and …); assay: SPR (Biacore), FcRn amine-coupled to CM5, IgG flowed, pH 7.2, 15 C
[7] = target: T1, canine FcRn complex (FcRn-α subunit and …); assay: SPR (Biacore), biotinylated FcRn on SA chip, IgG flowed, pH 6, 15 C; remark: listed apart in the source
[8] = target: canine FcRn complex (FcRn-α subunit and β-microglobulin) (canine); assay: SPR (Biacore), FcRn amine-coupled to CM5, IgG flowed, pH 6, 15 C
[9] = target: NGF (target protein of mAb2); assay: SPR (Biacore T200), target amine-coupled to CM5, antibody flowed, 15 C, 1:1 model
[10] = target: NGF (target protein of mAb2); assay: cell-based or functional assay
[11] = target: canine FcRn complex (FcRn-α subunit and β-microglobulin) (canine); assay: SPR (Biacore), FcRn amine-coupled to CM5, IgG flowed, pH 7.2, 15 C

T1 sequence (A0A8I3PFR8 entry or part of it, one chain of several): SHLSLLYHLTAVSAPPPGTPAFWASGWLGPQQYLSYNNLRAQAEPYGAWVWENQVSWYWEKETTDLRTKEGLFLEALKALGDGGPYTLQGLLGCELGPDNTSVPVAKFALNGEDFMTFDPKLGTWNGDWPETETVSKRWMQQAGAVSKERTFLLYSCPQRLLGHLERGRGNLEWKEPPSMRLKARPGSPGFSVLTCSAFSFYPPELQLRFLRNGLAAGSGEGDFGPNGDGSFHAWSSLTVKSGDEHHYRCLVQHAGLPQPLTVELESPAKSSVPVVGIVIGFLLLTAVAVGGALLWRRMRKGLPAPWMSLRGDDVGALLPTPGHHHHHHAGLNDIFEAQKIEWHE

B1: mAb1, caninized anti-IL31 antibody 34D03, canine IgGB (65), WT (antibody)
heavy: EVQLVESGGDLVKPGGSLRLSCVASGFTFSNYGMSWVRQAPGKGLQWVATISYGGSYTYYPDNIKGRFTISRDNAKNTLYLQMNSLRAEDTAMYYCVRGYGYDTMDYWGQGTLVTVSSASTTAPSVFPLAPSCGSTSGSTVALACLVSGYFPEPVTVSWNSGSLTSGVHTFPSVLQSSGLYSLSSMVTVPSSRWPSETFTCNVAHPASKTKVDKPVPKRENGRVPRPPDCPKCPAPEMLGGPSVFIFPPKPKDTLLIARTPEVTCVVVDLDPEDPEVQISWFVDGKQMQTAKTQPREEQFNGTYRVVSVLPIGHQDWLKGKQFTCKVNNKALPSPIERTISKARGQAHQPSVYVLPPSREELSKNTVSLTCLIKDFFPPDIDVEWQSNGQQEPESKYRTTPPQLDEDGSYFLYSKLSVDKSRWQRGDTFICAVMHEALHNHYTQESLSHSPGK
VL: EIVMTQSPASLSLSQEEKVTITCKASQSVSFAGTGLMHWYQQKPGQAPKLLIYRASNLEAGVPSRFSGSGSGTDFSFTISSLEPEDVAVYYCQQSREYPWTFGQGTKLEIK
notes: VH/VL: the caninized 34D03 entries of the listing; also called mAb1 WT; mAb1 Wild-Type
Kd [1]: 19.9 nM
Kd [2]: 18700 nM
Kd [3]: 15 to 24.4 nM
Kd [4]: 0.483 nM
IC50 (cell based potency assay) [5]: 1.1 nM

B2: mAb1, caninized anti-IL31 antibody 34D03, canine IgGB (65), N434H (antibody)
heavy: B1 heavy with N440H
VL: B1 VL
notes: VH/VL: the caninized 34D03 entries of the listing; also called mAb1 N434H; mAb1 N434H Mutant
Kd [6]: 5000 nM
Kd [3]: 0.7 to 1.3 nM
Kd [4]: 0.373 nM
IC50 (cell based potency assay) [5]: 0.99 nM
Kd [7]: 6.45 nM

Further lines, results first:

Kd [8]: 57.2 nM
Kd [9]: 0.0851 nM
IC50 (cell based potency assay) [10]: 23.7 nM
B3: mAb2 of Tables 1-3, caninized anti-NGF antibody, canine IgGB (65), WT (antibody, part only; not given: Anti-NGF heavy and light variable domains, part only)
heavy, part: ASTTAPSVFPLAPSCGSTSGSTVALACLVSGYFPEPVTVSWNSGSLTSGVHTFPSVLQSSGLYSLSSMVTVPSSRWPSETFTCNVAHPASKTKVDKPVPKRENGRVPRPPDCPKCPAPEMLGGPSVFIFPPKPKDTLLIARTPEVTCVVVDLDPEDPEVQISWFVDGKQMQTAKTQPREEQFNGTYRVVSVLPIGHQDWLKGKQFTCKVNNKALPSPIERTISKARGQAHQPSVYVLPPSREELSKNTVSLTCLIKDFFPPDIDVEWQSNGQQEPESKYRTTPPQLDEDGSYFLYSKLSVDKSRWQRGDTFICAVMHEALHNHYTQESLSHSPGK

Kd [11]: 1300 nM
Kd [8]: 7.3 nM
Kd [9]: 0.0555 nM
IC50 (cell based potency assay) [10]: 20.9 nM
B4: mAb2 of Tables 1-3, caninized anti-NGF antibody, canine IgGB (65), N434H (antibody, part only; not given: Anti-NGF heavy and light variable domains, part only)
heavy, part: B3 heavy, part with N322H
